Reference: CN116239684A (WUHAN ABCLONAL CO LTD, dated 2023)
Substitutions are numbered along the chain they refer to. Each block holds one binder with its values, some of them ahead of it.

Molecular target: 重组人CALR融合蛋白 (recombinant human calreticulin fusion protein, residues 18-203, Example 1) (human, UniProt P27797 18-203)
Test: SPR, Biacore 3000, curve fitting

Sequence of 重组人CALR融合蛋白 (recombinant human calreticulin fusion protein, residues 18-203, Example 1) (P27797 18-203): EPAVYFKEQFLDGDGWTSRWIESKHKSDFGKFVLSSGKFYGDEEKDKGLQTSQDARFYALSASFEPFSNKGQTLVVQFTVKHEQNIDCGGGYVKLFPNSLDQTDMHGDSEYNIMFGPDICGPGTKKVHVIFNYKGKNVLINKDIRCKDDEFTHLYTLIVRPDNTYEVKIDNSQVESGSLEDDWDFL

Kd: 4.88 nM
B1: 兔单克隆抗体2G2 (rabbit monoclonal antibody 2G2 against human calreticulin) (antibody, V domains shown)
VH: QEQLEESGGGLVQPEGSLTLTCTASGFSINNNYWICWVRQAPGKGLEWVGCISIADNSNTYYATWAKGRVTISKTSSTTVTLQMTSLTAADTATYFCARGPAVISFNLWGPGTLVTVSS
VL: AQVLTQTPSSTSAAVGGTVTINCQASESVYGNNRLAWYQQKPGQPPKRLIYDASTLASGVPSRFSGSGSGKQFTLTMSGVQCDDAATYYCIGHFYSGINSISFGGGTEVVVKG
notes: Recombinant rabbit IgG made in 293F cells; also called 2G2抗体; 兔抗人CALR单克隆抗体2G2

Kd: 4.34 nM
B2: 兔单克隆抗体3B3 (rabbit monoclonal antibody 3B3 against human calreticulin) (antibody, V domains shown)
VH: QSLEESGGGLVQPEGSLTLTCTASGFSFSSSYWICWVRQAPGKGLEWIGCISIDDNSNTYYASWAKGRVTISKTSSTTVTLQMTSLTAADTATYFCARGPGIIFYNLWGPGTLVTVSS
VL: B1 VL with G31N, T55K, S65K, S96T, G97S, I101V, S102T
notes: Recombinant rabbit IgG made in 293F cells; also called 3B3抗体; 兔抗人CALR单克隆抗体3B3
